Data on 1 molecule can be found in patent US20100056445A1, “ADIPONECTIN FOR THE TREATMENT AND DIAGNOSIS OF ALBUMINURIA” (THOMAS JEFFERSON UNIVERSITY, priority 2006, published 2010).

Entries after “also recorded” stand apart in the source; their conditions may differ.

For experiment [1], the system named is podocyte monolayer. The experiment is described as follows: Albumin permeability across differentiated podocyte monolayer (Transwell). In kind it is cell-based, mouse. To be noted: adiponectin (globular or full length) 3 μg/ml, serum free, vs. control. On the procedure: Podocyte cell culture: Conditionally immortalized mouse podocytes were kindly provided by Dr. Peter Mundel (Albert Einstein College of Medicine, Bronx, N.Y.) and were cultured as previously described (27). The cells harbor a temperature-sensitive variant of the SV40 large T antigen (tsA58) that is inducible by γ-interferon and stable at 33° C. but rapidly degraded at 37° C. (27). At 33° C., the large T antigen allows for cellular proliferation. The proliferating cells are maintained in collagen I—coated flasks in RPMI-1640 media supplemented with 10% FBS and 10 units/ml mouse recombinant γ-interferon. When the cells have reached confluence, they are passaged and allowed to differentiate at 37° C. for 8-10 days without γ-interferon in Dulbecco's modified Eagle's medium containing 5.5 mmol/l glucose and 5% FCS. For the permeability assay a modification of a previously published protocol (28) was adopted. Differentiated podocytes (0.2×10^6 podocytes/well) plated on collagen coated 24 well Transwell plates (Corning) were serum-starved ovenight when confluent. Cells were then modulated with globular adiponectin (PepROTech Inc.) with or without 1 mM adenosine 9-p-D-arabinofuranoside (ARA-A) (Sigma, St. Louis, Mo.), for 24 h. Cells were then washed twice with PBS supplemented with 1 mM MgCl2 and 1 mM CaCl2. The upper compartment was refilled with 0.25 ml RPMI 1640 alone and the lower compartment with 0.5 ml RPMI 1640 supplemented with 40 mg/ml BSA and incubated for 2 hour at 37° C. Total protein concentration in the upper compartment was determined using a Bio-Rad protein assay (Bio-Rad Laboratories, Hercules, Calif.).

The test system of experiment [2] is Adiponectin KO (Ad−/−) mice. The experiment can be described thus: Urine albumin/creatinine ratio in treated adiponectin KO mice. In kind it is in vivo, mouse. To be noted: AdKO mice at 4 months of age; gAd 25 μg twice daily for 10 days (gAd or fAd). The procedure:
(§1) Adiponectin administration and animal studies: The mice were treated with 25 μg of recombinant human globular domain adiponectin (gAd; PepROTech, Rocky Hill, N.J.) subcutaneously twice daily for 10 consecutive days. The control animals were given PBS alone. 24-hour urines from each mouse were collected twice: one week before the injections and on the last day of the injections. The urine albumin and creatinine were measured with a mouse Albuwell ELISA kit and a Creatinine Companion kit (Exocell, Philadelphia, Pa.) (25,26). The mice were sacrificed five hours after the final gAd injection under anesthesia. Portions of kidney cortex were fixed in buffered formalin and embedded in paraffin. A portion of kidney cortical tissue was cut into 1 mm^3 pieces and fixed in 2.5% glutaraldehyde
Interventional animal studies: The mice were treated with 25 μg of recombinant human globular domain adiponectin gAd (PepROTech, Rocky Hill, N.J.), administered 25 μg/mouse twice a day for 10 consecutive days or full-length adiponectin (fAd) was administered using an AAV vector (AAV2/8 CMV fAd virus 4×1011 GC/mouse for 10 days). A separate group of Ad−/− mice were treated with 5-aminoimidazole-4-carboxamide-1-beta-D-ribonucleoside (AICAR) with a single i.p. dose of 300 mg/kg. The control animals were given PBS alone or control AAV. 24-hour urines from each mouse were collected before treatment and on the last day of the treatment period. The urine albumin and creatinine were measured with a mouse Albuwell ELISA kit and a Creatinine Companion kit (Exocell, Philadelphia, Pa.) (26, 25). As an index of oxidant stress timed urine collections were also analyzed for hydrogen peroxide by Amplex red assay (Invitrogen/Molecular Probes, Carlsbad, Calif.) following the manufacturer's protocol. Portions of liver, muscle and kidney was snap-frozen in liquid nitrogen for RNA isolation. An additional aliquot of normal kidney was frozen in OCT for immunofluorescent staining. […]

The test system of experiment [3] is Adiponectin KO (Ad−/−) mice. The experiment is described as follows: Podocyte foot process effacement by electron microscopy in adiponectin KO mice. To be noted: gAd treatment, EM. The class given is in vivo, mouse. The procedure:
as §1, with “A portion of kidney cortical tissue was cut into 1 mm^3 pieces and fixed in 2.5% glutaraldehyde” left out
Interventional animal studies: The mice were treated with 25 μg of recombinant human globular domain adiponectin gAd (PepROTech, Rocky Hill, N.J.), administered 25 μg/mouse twice a day for 10 consecutive days or full-length adiponectin (fAd) was administered using an AAV vector (AAV2/8 CMV fAd virus 4×1011 GC/mouse for 10 days). […] The urine albumin and creatinine were measured with a mouse Albuwell ELISA kit and a Creatinine Companion kit (Exocell, Philadelphia, Pa.) (26, 25). As an index of oxidant stress timed urine collections were also analyzed for hydrogen peroxide by Amplex red assay (Invitrogen/Molecular Probes, Carlsbad, Calif.) following the manufacturer's protocol. […]

For experiment [4], the system named is Nox4. The experiment can be described thus: Nox4 protein in cultured podocytes (immunoblot, confocal). The class given is cell-based, mouse. To be noted: adiponectin for 16 h.

B1: adiponectin: 30 kDa adipocyte-secreted protein; in the first series of tests the recombinant globular domain was used, later gAd or fAd (protein, UniProt Q15848 19-244, looked up)
Adiponectin: ETTTQGPGVLLPLPKGACTGWMAGIPGHPGHNGAPGRDGRDGTPGEKGEKGDPGLIGPKGDIGETGVPGAEGPRGFPGIQGRKGEPGEGAYVYRSAFSVGLETYVTIPNMPIRFTKIFYNQQNHYDGSTGKFHCNIPGLYYFAYHITVYMKDVKVSLFKKDKAMLFTYDQYQENNVDQASGSVLLHLEVGDQVWLQVYGEGERNGLYADNDNDSTFTGFLLYHDTN
As for B1, the “Permeability of albumin across a podocyte monolayer” value in experiment [1] is “reduced”. Also, the “Urine albumin/creatinine ratio (albuminuria)” value in experiment [2] is reported as “normalized albuminuria levels; also recorded: restores normal albuminuria”. The “Podocyte foot process fusion / effacement” value in experiment [3] is “improved podocyte foot process effacement; also recorded: restored podocyte foot processes”. Moreover, in experiment [4], the “Podocyte Nox4 protein” value is given as “sufficient to suppress podocyte Nox4”.
